The target of assay [1] is fibroblast growth factor receptor on fibroblasts. As to the kind of experiment: binding to fibroblasts as in Example 3-1; peptide density 0.05 peptides/µm^2.
Assay [2] has the same target. Description: binding to fibroblasts as in Example 3-1; peptide density 10.5 peptides/µm^2.
Assay [3] addresses melanocortin receptor on melanocytes. As to the kind of experiment: interference with alpha-MSH binding to melanocytes as in Example 4-1; peptide density 0.1 peptides/µm^2.
The target is the same in assay [4]. As to the kind of experiment: interference with alpha-MSH binding to melanocytes as in Example 4-1; peptide density 7 peptides/µm^2.
Assay [5] has the same target. Description: interference with alpha-MSH binding to melanocytes as in Example 4-1; peptide density 10.5 peptides/µm^2.
Assay [6] addresses integrin receptor (beta-1 family) on keratinocytes. As to the kind of experiment: flow cytometry (FACS), fluorescence immunoassay, on keratinocytes.
Assay [7] addresses melanocortin receptor on melanocytes. As to the kind of experiment: interference with alpha-MSH binding to melanocytes as in Example 4-1; peptide density 10 peptides/µm^2.
Assay [8] concerns the target fibroblast growth factor receptor on fibroblasts. As to the kind of experiment: binding to fibroblasts as in Example 3-1; peptide density 0.1 peptides/µm^2.
For assay [9], the target named is melanocortin receptor on melanocytes. Description: interference with alpha-MSH binding to melanocytes as in Example 4-1; peptide density 0.05 peptides/µm^2.
For assay [10] the target is unchanged. Description: flow cytometry (FACS), fluorescence immunoassay, on melanocytes. In general terms: Flow cytometry measures light scatter and fluorescence of single cells or particles in a stream.
For assay [11] the target is unchanged. As to the kind of experiment: binding of alpha-MSH to melanocytes after treatment with 10 µM capsule 2; competitor alpha-MSH.
For assay [12] the target is unchanged. As to the kind of experiment: interference with alpha-MSH binding to melanocytes as in Example 4-1; peptide density 2 peptides/µm^2; reference set to 10.
Assay [13] has as its target fibroblast growth factor receptor on fibroblasts. Description: capsule and fibroblasts cultured together at 4° C. for 1 hour.
Assay [14] shares this target. As to the kind of experiment: flow cytometry (FACS), fluorescence immunoassay, on fibroblasts.
Assay [15] shares this target. As to the kind of experiment: binding to fibroblasts as in Example 3-1; peptide density 2 peptides/µm^2; reference set to 10.
Assay [16] has the same target. Description: binding to fibroblasts as in Example 3-1; peptide density 7 peptides/µm^2.
Assay [17] shares this target. As to the kind of experiment: binding to fibroblasts as in Example 3-1; peptide density 10 peptides/µm^2.

No end group written: not given here.

B1: capsule 1-1 (peptide)
peptide: AKST
modifications: not fully specified (N-terminus); printed as Ala-Lys-Ser-Thr; also: N-terminus amide-linked to microcapsule surface carboxyl (EDAC/NHS)
Molecule B1 had a binding affinity to fibroblasts, relative (capsule 1-3 = 10) (relative to capsule 1-3 = 10) in assay [1] of 2.

B2: capsule 1-6 (peptide)
peptide: AKST
modifications: not fully specified (N-terminus); printed as Ala-Lys-Ser-Thr; also: N-terminus amide-linked to microcapsule surface carboxyl (EDAC/NHS)
For the molecule B2, the binding affinity to fibroblasts, relative (capsule 1-3 = 10) (relative to capsule 1-3 = 10) in assay [2] was found to be 3.5.

B3: capsule 2-2 (peptide)
peptide: EGHKIFPSWY
modifications: not fully specified (N-terminus); printed as Glu-Gly-His-Lys-Ile-Phe-Pro-Ser-Trp-Tyr; also: N-terminus amide-linked to microcapsule surface carboxyl (EDAC/NHS)
In the case of B3, the binding interference of melanocyte and alpha-MSH, relative (capsule 2-3 = 10) (relative to capsule 2-3 = 10) in assay [3] stood at 7.5.

B4: capsule 2-4 (peptide)
peptide: EGHKIFPSWY
modifications: not fully specified (N-terminus); printed as Glu-Gly-His-Lys-Ile-Phe-Pro-Ser-Trp-Tyr; also: N-terminus linked to microcapsule surface carboxyl (EDAC/NHS)
In turn, B4 yielded a binding interference of melanocyte and alpha-MSH, relative (capsule 2-3 = 10) (relative to capsule 2-3 = 10) in assay [4] of 10.

B5: capsule 2-6 (peptide)
peptide: EGHKIFPSWY
modifications: not fully specified (N-terminus); printed as Glu-Gly-His-Lys-Ile-Phe-Pro-Ser-Trp-Tyr; also: N-terminus linked to microcapsule surface carboxyl (EDAC/NHS)
In assay [5], B5 registered a binding interference of melanocyte and alpha-MSH, relative (capsule 2-3 = 10) (relative to capsule 2-3 = 10) of 3.

B6: capsule 3 (microcapsule to which the peptide of SEQ ID NO: 3 was linked) (peptide)
peptide: ADGSP
modifications: not fully specified (N-terminus); printed as Ala-Asp-Gly-Ser-Pro; also: N-terminus linked to microcapsule surface carboxyl (EDAC/NHS)
Molecule B6 yielded a binding rate in [6] of 85%.

B7: capsule 2-5 (peptide)
peptide: EGHKIFPSWY
modifications: not fully specified (N-terminus); printed as Glu-Gly-His-Lys-Ile-Phe-Pro-Ser-Trp-Tyr; also: N-terminus linked to microcapsule surface carboxyl (EDAC/NHS)
In assay [7], B7 showed a binding interference of melanocyte and alpha-MSH, relative (capsule 2-3 = 10) (relative to capsule 2-3 = 10) of 7.

B8: capsule 1-2 (peptide)
peptide: AKST
modifications: not fully specified (N-terminus); printed as Ala-Lys-Ser-Thr; also: N-terminus amide-linked to microcapsule surface carboxyl (EDAC/NHS)
Turning to B8, the binding affinity to fibroblasts, relative (capsule 1-3 = 10) (relative to capsule 1-3 = 10) in assay [8] is 7.

B9: capsule 2-1 (peptide)
peptide: EGHKIFPSWY
modifications: not fully specified (N-terminus); printed as Glu-Gly-His-Lys-Ile-Phe-Pro-Ser-Trp-Tyr; also: N-terminus amide-linked to microcapsule surface carboxyl (EDAC/NHS)
Molecule B9 had a binding interference of melanocyte and alpha-MSH, relative (capsule 2-3 = 10) (relative to capsule 2-3 = 10) in [9] of 3.

B10: capsule 2 (microcapsule to which the peptide of SEQ ID NO: 2 was linked) (peptide)
peptide: EGHKIFPSWY
modifications: not fully specified (N-terminus); printed as Glu-Gly-His-Lys-Ile-Phe-Pro-Ser-Trp-Tyr; also: N-terminus amide-linked to microcapsule surface carboxyl (EDAC/NHS)
Consider B10, for which the binding affinity (binding rate) in assay [10] was determined as 70%. In [11], this molecule came in with a percent reduction of the binding of melanocyte and alpha-MSH of 95%. The molecule also had a binding interference of melanocyte and alpha-MSH, relative (capsule 2-3 = 10) (relative to capsule 2-3 = 10) in assay [12] of 10.

B11: capsule 1 (microcapsule to which the peptide of SEQ ID NO: 1 was linked) (peptide)
peptide: AKST
modifications: not fully specified (N-terminus); printed as Ala-Lys-Ser-Thr; also: N-terminus amide-linked to microcapsule surface carboxyl (EDAC/NHS)
In assay [13], B11 returned a fold binding affinity against the microcapsule to which the peptide was not linked of 4 times. Further, the binding rate in [14] worked out at 75%. This molecule registered a binding affinity to fibroblasts, relative (capsule 1-3 = 10) (relative to capsule 1-3 = 10) in [15] of 10.

B12: capsule 1-4 (peptide)
peptide: AKST
modifications: not fully specified (N-terminus); printed as Ala-Lys-Ser-Thr; also: N-terminus amide-linked to microcapsule surface carboxyl (EDAC/NHS)
Take B12: the binding affinity to fibroblasts, relative (capsule 1-3 = 10) (relative to capsule 1-3 = 10) in [16] was 9.5.

B13: capsule 1-5 (peptide)
peptide: AKST
modifications: not fully specified (N-terminus); printed as Ala-Lys-Ser-Thr; also: N-terminus amide-linked to microcapsule surface carboxyl (EDAC/NHS)
Regarding B13, the binding affinity to fibroblasts, relative (capsule 1-3 = 10) (relative to capsule 1-3 = 10) in assay [17] was determined as 7.5.
